Experimental data: EP4703383A1 (Shenzhen Genuine Biomedical Technology Co., Ltd, dated 2026)
Where a chain is given by its changes, count along the chain named. In names and notes the source's numbering stands.

B1: H-PR-B06 (antibody, V domains shown)
VH: DVKLVESGGGLVKPGGSLKLACAASGFTFSSYTMSWVRQTPEKRLEWVATISSGGSYTYYPDSVKGRFTISRDNAKNTLYLQLSSLKSEDTAMYYCTRDRYYSTTPDWYFDVWGAGTTVTVSS
VL: DIVLTQSPATLSVTPGDSVSLSCRATQIIFNNLHWYQQKSHESPRLLITYTSQSISGIPSRFSGSGSGTDFTLTINSVETEDFGMYFCQQSNTWPRTFGGGTKLEIK
notes: also called Antibody No. 18
B2: P-PR-D04H (antibody, V domains shown)
VH: QVQLQQPGSELVRPGASVKLSCKASGYTFTSYWMHWVKQRPGQGLEWIGNIYPGSGSTNYDEKFKSKATLTVDTSSSTAYMQLSSLTSEDSAVYYCTRGNYRYYFDYWGQGTTLTVSS
VL: not shown
notes: also called Antibody No. 9
B3: H-PR-B03 (antibody, V domains shown)
VH: QVQLKESGPGLVAPSQSLSITCTVSGFSLTGFGVNWFRQPPGRGLEWLGMIWGDGSTDYNSALKSRLSISKDNSKSQVFLKMNSLQTDDTARYYCARVLYYYGGNSFAYWGQGTLVTVSA
VL: DVLMTQTPLSLPVSLGDQASISCRSSQSIVHSNGNTYLEWYLQKPGQSPKLLIYKVSSRFSGVPDRFSGSGSGTDFTLKISRVEAEDLGVYYCFQGSHVPYTFGGGTKLEIK
notes: also called Antibody No. 17
B4: HP-PR02E11 (antibody, V domains shown)
VH: QVQLQQSGPGLVAPSQSLSITCTVSGFSLTSYGVNWVRQPPGKGLEWLGIIGAGGSTNYNSALMSRLSISKDNSKSQVFLKMNSLQTDDTAMYYCARSLYYYGSSSFAYWGQGTLVTVSA
VL: B3 VL with V2I, L3V, S58N, Y101W, I111L
notes: also called Antibody No. 19
B5: P-PR-C08H (antibody, V domains shown)
VH: QVQLQQPGSELVRPGASVKLSCKASGFTFTTYWVHWVKQRPGQGLEWIGNISPGSGSTNYDEKFKSKASLTVDTFSNTAYMQLSSLTSEDSAVYYCIRHSGNYFNAMDYWGQGTTVTVSS
VL: DIVMTQAAPSVPVTPGESVSISCRSSKSLLHSNGNTYLYWFLQRPGQSPQLLIYRMSNLASGVPDRFSGSGSGTAFTLRISRVEAEDVGVYYCMQHLEYPLTFGAGTKLELK
notes: also called Antibody No. 6
B6: P-PR-H04W (antibody, V domains shown)
VH: B5 VH with T115S
VL: B5 VL with L101F, A105S, L111I
notes: also called Antibody No. 12
B7: P-PR-G02W (antibody, V domains shown)
VH: B5 VH with V116L
VL: B5 VL
notes: also called Antibody No. 11
B8: P-PR-C04W (antibody, V domains shown)
VH: B5 VH
VL: B5 VL
notes: also called Antibody No. 15
B9: P-PR-C05H (antibody, V domains shown)
VH: B5 VH with Y32F, G56T, D61N, S66N, T115S
VL: B5 VL with V90I
notes: also called Antibody No. 3
B10: P-PR-C04H (antibody, V domains shown)
VH: B5 VH with S55G
VL: B5 VL with L101F, A105S, L111I
notes: also called Antibody No. 2
B11: P-PR-C12H (antibody, V domains shown)
VH: B5 VH with T30A, G56V, V116L
VL: B5 VL with P12L, L52V, L101F
notes: also called Antibody No. 7
B12: P-PR-C02H (antibody, V domains shown)
VH: B5 VH with K19R, T115S
VL: B5 VL with A8T, T14A, S32T, N35Y
notes: also called Antibody No. 1
B13: P-PR-D01H (antibody, V domains shown)
VH: B5 VH with S55G, S84G, V116L
VL: B5 VL
notes: also called Antibody No. 8
B14: P-PR-H07W (antibody, V domains shown)
VH: B5 VH with T30A, G56V, V116L
VL: B5 VL with L101F, A105G, L111I
notes: also called Antibody No. 13
B15: P-PR-C06H (antibody, V domains shown)
VH: B5 VH with T115S
VL: B5 VL with P12F, R55Q, L59R, F67L, L101F, A105G, L111I
notes: also called Antibody No. 4
B16: P-PR-H11W (antibody, V domains shown)
VH: B5 VH with Y32F, G56T, D61N, S66N, T115S
VL: B5 VL with L101F, A105G, L111I
notes: also called Antibody No. 14
B17: P-PR-D06H (antibody, V domains shown)
VH: B5 VH with Y32F, G56T, D61N, S66N, V116L
VL: B5 VL with S20T, N35K, R55W, L101F, A105V
notes: also called Antibody No. 16; P-PR-D06W
B18: P-PR-B09W (antibody, V domains shown)
VH: B5 VH with Y32F, S55G, G56T, T115S
VL: B5 VL
notes: also called Antibody No. 10
B19: HP-PR01D12 (antibody, V domains shown)
VH: EVMLVESGGGLVQPGGSRKLSCAASGFTFSSFGMNWVRQAPEKGLEWVAYISSGSSIIYYADTVKGRFTISRDNPKNTLFLQMTSLRSEDTAMYYCTRFYGYIPFDYWGQGTTLTVSS
VL: DIVMTQSPAIMSASPGEKVTMTCSASSSLIYMHWYQQKSSTSPKLWIYDTSKLASGVPGRFSGSGSGNSYSLTTSSMEAEDVATYYCFQGSGYPLTFGGGTKLEIK
notes: also called Antibody No. 20
B20: HP-PR01C02 (antibody, V domains shown)
VH: DVHLVESGPGLVKPSQSLSLTCTVTGYSITSDYAWNWIRQFPGNKLEWMGYISYSGSTGYSPSLKSRVSITRDTSKNQFFLQLNSVTTEDTATYFCARNNWAFDFWGQGTTLTVSS
VL: DIVLTQSPAIMSASPGEKVTMTCSASSSVNYMHWYQQKSGTSPKRWIYDTSKLASGVPARFSGSGSGTSYSLTISSMEAEDAATYYCQQWSSNPLTFGAGTKLELK
notes: also called Antibody No. 22

Experiments:
[1] = target: T1, recombinant mesothelin protein with the same tag; test: ELISA, coated antigen 1 ug/mL, antibody 10 ug/mL
T1 construct: Control antigen of the species-specific ELISA; also called Control protein

[2] = target: T2, extracellular segment of human PRLR protein with avi-(his)6 tag (hPRLR-ECD-avi-his) (human, UniProt P16471 25-234); test: BLI (Octet), antibody on Protein A sensor, monomeric PRLR ECD in solution, 1:1 fit
T2 construct: The assays say only 'monomeric human PRLR extracellular domain / ECD'; also called human PRLR extracellular domain; monomeric PRLR ECD
T2 sequence: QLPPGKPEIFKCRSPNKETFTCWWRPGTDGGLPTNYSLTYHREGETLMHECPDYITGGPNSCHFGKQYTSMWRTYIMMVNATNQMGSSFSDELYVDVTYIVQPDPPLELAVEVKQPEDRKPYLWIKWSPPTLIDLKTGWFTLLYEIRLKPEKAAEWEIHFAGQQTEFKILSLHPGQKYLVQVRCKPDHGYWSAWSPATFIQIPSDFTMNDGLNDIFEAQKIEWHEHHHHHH

[3] = target: T2, extracellular segment of human PRLR …; test: ELISA, coated antigen 1 ug/mL, antibody 10 ug/mL

Row | Binder | absorbance at 450nm [1] | Kd [2] [nM] | koff [2] [s⁻¹] | kon [2] [M⁻¹ s⁻¹] | absorbance at 450nm [3]
1 | B1 | 0.054 |  |  |  | 
2 | B2 | 0.065 |  |  |  | 
3 | B3 | 0.067 |  |  |  | 
4 | B4 | 0.111 |  |  |  | 
5 | B5 | 0.065 | 0.00177 | 2.44e-07 | 138000 | 2.2
6 | B6 | 0.064 |  |  |  | 
7 | B7 | 0.07 |  |  |  | 
8 | B8 | 0.095 |  |  |  | 
9 | B9 | 0.116 | < 0.001 | 1.3e-07 | 209000 | 2.14
10 | B10 | 0.09 |  |  |  | 2.15
11 | B11 | 0.091 | 2.7 | 0.00033 | 122000 | 2.24
12 | B12 | 0.098 | 0.0016 | 2.44e-07 | 153000 | 2.14
13 | B13 | 0.068 | 0.00105 | 2.44e-07 | 232000 | 2.02
14 | B14 | 0.069 |  |  |  | 2.45
15 | B15 | 0.084 | 2.71 | 0.000663 | 244000 | 2.1
16 | B16 | 0.054 |  |  |  | 2.32
17 | B17 | 0.137 | 3.38 | 0.000389 | 115000 | 2.48
18 | B18 | 0.102 | 1.53 | 0.000287 | 187000 | 2.32
19 | B19 | 0.09 |  |  |  | 
20 | B20 | 0.072 |  |  |  | 
